Test results from publication PMC5450233.

B1: GST–SKIP(1-310) [not stated] / HA–KHC [rat] (parent)
chain 1: MEPGEVKDRILENISLSVKKLQSYFAACEDEIPAIRNHDKVLQRLCEHLDHALLYGLQDLSSGYWVLVVHFTRREAIKQIEVLQHVATNLGRSRAWLYLALNENSLESYLRLFQENLGLLHKYYVKNALVCSHDHLTLFLTLVSGLEFIRFELDLDAPYLDLAPYMPDYYKPQYLLDFEDRLPSSVHGSDSLSLNSFNSVTSTNLEWDDSAIAPSSEDYDFGDVFPAVPSVPSTDWEDGDLTDTVSGPRSTASDLTSSKASTRSPTQRQNPFNEEPAETVSSSDTTPVHTTSQEKEEAQALDPPDACTEL
chain 2: MADPAECSIKVMCRFRPLNEAEILRGDKFIPKFKGEETVVIGQGKPYVFDRVLPPNTTQEQVYNACAKQIVKDVLEGYNGTIFAYGQTSSGKTHTMEGKLHDPQLMGIIPRIAHDIFDHIYSMDENLEFHIKVSYFEIYLDKIRDLLDVSKTNLAVHEDKNRVPYVKGCTERFVSSPEEVMDVIDEGKANRHVAVTNMNEHSSRSHSIFLINIKQENVETEKKLSGKLYLVDLAGSEKVSKTGAEGAVLDEAKNINKSLSALGNVISALAEGTKTHVPYRDSKMTRILQDSLGGNCRTTIVICCSPSVFNEAETKSTLMFGQRAKTIKNTVSVNLELTAEEWKKKYEKEKEKNKALKSVIQHLEVELNRWRNGEAVPEDEQISAKDQKNLEPCDNTPIIDNITPVVDGISAEKEKYDEEITSLYRQLDDKDDEINQQSQLAEKLKQQMLDQDELLASTRRDYEKIQEELTRLQIENEAAKDEVKEVLQALEELAVNYDQKSQEVEDKTRANEQLTDELAQKTTTLTTTQRELSQLQELSNHQKKRATEILNLLLKDLGEIGGIIGTNDVKTLADVNGVIEEEFTMARLYISKMKSEVKSLVNRSKQLESAQTDSNRKMNASERELAACQLLISQHEAKIKSLTDYMQNMEQKRRQLEESQDSLSEELAKLRAQEKMHEVSFQDKEKEHLTRLQDAEEVKKALEQQMESHREAHQKQLSRLRDEIEEKQRIIDEIRDLNQKLQLEQERLSSDYNKLKIEDQEREVKLEKLLLLNDKREQAREDLKGLEETVSRELQTLHNLRKLFVQDLTTRVKKSVELDSDDGGGSAAQKQKISFLENNLEQLTKVHKQLVRDNADLRCELPKLEKRLRATAERVKALESALKEAKENAMRDRKRYQQEVDRIKEAVRAKNMARRAHSAQIAKPIRPGHYPASSPTAVHAVRGGGGSSNSTHYQK

Variants of: B1
Experiment: GST pull-down, immunoblot (IB: HA) quantified
Details: with HA–KHC [rat]; lysates of 293T cells co-expressing HA-KHC and HA-KLC2 (kinesin-1 tetramer); three independent experiments; parent: 1; read off a plot

Going from chain 1 E217A D218A Y219A to chain 1 D238A G239A D240A, the ratio to parent rises from 0.5 to 0.98.

Going from chain 1 W236A E237A to chain 1 D220A F221A G222A, the ratio to parent falls from 0.97 to 0.38.
